Reference: the supplement of paper PMC6379048

How the values were obtained:
Experiment in all cases: EC50 of free RNA motif oligo competing protein binding to immobilised probe
[1] = target: CSNK2A1 (UniProt P68400)
Summary of the method: (§1)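 Over three biological replicates and two independent experiments, proteins captured on NHS-Sepharose beads carrying 5′-amino-C6 RNA oligos were quantified by label-free LC-MS/MS and normalised to the control. Capture lasted 30 min at 4°C and followed a 1 h pre-incubation at 4°C of HEK293-FT lysate (2.5 mg protein/well) with the same oligos in free form (0 nM to 30 μM). EC50 was taken from a four-parameter log-logistic fit, and Kd was EC50 corrected by a protein-dependent depletion factor.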

[2] = target: MRPL19 (UniProt P49406)
Summary of the method: as §1

[3] = target: T1, SRSF4 (UniProt Q08170)
T1 sequence: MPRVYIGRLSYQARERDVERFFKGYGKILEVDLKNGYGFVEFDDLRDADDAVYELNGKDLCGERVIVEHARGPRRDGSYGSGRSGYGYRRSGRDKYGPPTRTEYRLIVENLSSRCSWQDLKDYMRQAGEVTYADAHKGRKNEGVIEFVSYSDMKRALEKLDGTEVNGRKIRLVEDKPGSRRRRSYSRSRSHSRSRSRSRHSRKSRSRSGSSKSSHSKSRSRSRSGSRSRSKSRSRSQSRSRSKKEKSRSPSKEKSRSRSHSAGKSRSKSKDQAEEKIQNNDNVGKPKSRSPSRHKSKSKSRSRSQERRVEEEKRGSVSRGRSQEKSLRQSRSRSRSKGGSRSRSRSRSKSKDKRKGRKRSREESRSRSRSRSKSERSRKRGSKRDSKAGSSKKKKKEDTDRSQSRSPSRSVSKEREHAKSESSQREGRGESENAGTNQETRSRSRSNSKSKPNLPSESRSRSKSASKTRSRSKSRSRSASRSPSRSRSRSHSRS
Summary of the method: as §1

[4] = target: T2, SRSF7 (UniProt Q16629)
T2 sequence: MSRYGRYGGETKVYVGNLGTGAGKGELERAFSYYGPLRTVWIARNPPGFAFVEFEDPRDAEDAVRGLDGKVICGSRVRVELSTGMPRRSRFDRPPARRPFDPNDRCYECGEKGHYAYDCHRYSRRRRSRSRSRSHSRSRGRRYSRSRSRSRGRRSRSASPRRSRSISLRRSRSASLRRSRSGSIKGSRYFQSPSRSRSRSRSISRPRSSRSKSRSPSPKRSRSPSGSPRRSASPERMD
Summary of the method: as §1

[5] = target: T3, ERAL1 (UniProt O75616)
T3 sequence: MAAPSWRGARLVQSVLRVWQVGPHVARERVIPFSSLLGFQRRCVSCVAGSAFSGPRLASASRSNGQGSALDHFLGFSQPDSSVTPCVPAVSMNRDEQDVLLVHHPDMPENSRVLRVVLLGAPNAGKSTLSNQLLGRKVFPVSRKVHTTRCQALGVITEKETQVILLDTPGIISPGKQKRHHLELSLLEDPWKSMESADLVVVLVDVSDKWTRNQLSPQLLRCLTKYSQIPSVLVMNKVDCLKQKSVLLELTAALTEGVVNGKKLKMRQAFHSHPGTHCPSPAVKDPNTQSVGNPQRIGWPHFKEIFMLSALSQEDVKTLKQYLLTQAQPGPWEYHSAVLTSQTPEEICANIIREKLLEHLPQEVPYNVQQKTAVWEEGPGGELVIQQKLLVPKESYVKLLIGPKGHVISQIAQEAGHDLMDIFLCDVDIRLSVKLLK
Summary of the method: as §1

[6] = target: T4, GRSF1 (UniProt Q12849)
T4 sequence: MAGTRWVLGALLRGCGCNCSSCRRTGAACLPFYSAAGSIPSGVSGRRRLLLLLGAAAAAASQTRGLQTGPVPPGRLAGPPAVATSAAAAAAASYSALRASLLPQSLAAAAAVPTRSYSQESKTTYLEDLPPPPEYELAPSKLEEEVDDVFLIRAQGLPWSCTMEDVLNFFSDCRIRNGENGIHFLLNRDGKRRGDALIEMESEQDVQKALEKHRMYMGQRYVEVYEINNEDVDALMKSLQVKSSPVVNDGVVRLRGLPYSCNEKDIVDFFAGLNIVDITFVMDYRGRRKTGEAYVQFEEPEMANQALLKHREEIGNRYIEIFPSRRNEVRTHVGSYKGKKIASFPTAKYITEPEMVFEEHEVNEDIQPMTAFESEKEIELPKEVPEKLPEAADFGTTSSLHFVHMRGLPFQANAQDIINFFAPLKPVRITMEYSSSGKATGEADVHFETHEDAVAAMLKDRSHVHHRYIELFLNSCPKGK
Summary of the method: as §1

[7] = target: T5, LSM8 (UniProt O95777)
T5 sequence: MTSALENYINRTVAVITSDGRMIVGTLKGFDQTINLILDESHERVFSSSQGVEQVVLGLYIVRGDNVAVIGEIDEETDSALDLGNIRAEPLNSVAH
Summary of the method: as §1

[8] = target: PPIE (UniProt Q9UNP9)
PPIE, sequence (Q9UNP9 whole entry): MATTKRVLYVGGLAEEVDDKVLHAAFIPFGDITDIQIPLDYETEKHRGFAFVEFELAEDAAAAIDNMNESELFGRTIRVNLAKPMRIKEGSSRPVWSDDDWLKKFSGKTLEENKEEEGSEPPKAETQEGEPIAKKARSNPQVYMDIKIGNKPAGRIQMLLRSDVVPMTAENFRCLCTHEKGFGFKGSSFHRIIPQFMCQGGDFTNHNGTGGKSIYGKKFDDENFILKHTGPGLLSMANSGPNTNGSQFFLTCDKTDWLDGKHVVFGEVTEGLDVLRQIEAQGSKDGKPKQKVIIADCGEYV
Summary of the method: as §1

[9] = target: ZCCHC11 (UniProt Q5TAX3)
ZCCHC11, sequence (Q5TAX3 whole entry): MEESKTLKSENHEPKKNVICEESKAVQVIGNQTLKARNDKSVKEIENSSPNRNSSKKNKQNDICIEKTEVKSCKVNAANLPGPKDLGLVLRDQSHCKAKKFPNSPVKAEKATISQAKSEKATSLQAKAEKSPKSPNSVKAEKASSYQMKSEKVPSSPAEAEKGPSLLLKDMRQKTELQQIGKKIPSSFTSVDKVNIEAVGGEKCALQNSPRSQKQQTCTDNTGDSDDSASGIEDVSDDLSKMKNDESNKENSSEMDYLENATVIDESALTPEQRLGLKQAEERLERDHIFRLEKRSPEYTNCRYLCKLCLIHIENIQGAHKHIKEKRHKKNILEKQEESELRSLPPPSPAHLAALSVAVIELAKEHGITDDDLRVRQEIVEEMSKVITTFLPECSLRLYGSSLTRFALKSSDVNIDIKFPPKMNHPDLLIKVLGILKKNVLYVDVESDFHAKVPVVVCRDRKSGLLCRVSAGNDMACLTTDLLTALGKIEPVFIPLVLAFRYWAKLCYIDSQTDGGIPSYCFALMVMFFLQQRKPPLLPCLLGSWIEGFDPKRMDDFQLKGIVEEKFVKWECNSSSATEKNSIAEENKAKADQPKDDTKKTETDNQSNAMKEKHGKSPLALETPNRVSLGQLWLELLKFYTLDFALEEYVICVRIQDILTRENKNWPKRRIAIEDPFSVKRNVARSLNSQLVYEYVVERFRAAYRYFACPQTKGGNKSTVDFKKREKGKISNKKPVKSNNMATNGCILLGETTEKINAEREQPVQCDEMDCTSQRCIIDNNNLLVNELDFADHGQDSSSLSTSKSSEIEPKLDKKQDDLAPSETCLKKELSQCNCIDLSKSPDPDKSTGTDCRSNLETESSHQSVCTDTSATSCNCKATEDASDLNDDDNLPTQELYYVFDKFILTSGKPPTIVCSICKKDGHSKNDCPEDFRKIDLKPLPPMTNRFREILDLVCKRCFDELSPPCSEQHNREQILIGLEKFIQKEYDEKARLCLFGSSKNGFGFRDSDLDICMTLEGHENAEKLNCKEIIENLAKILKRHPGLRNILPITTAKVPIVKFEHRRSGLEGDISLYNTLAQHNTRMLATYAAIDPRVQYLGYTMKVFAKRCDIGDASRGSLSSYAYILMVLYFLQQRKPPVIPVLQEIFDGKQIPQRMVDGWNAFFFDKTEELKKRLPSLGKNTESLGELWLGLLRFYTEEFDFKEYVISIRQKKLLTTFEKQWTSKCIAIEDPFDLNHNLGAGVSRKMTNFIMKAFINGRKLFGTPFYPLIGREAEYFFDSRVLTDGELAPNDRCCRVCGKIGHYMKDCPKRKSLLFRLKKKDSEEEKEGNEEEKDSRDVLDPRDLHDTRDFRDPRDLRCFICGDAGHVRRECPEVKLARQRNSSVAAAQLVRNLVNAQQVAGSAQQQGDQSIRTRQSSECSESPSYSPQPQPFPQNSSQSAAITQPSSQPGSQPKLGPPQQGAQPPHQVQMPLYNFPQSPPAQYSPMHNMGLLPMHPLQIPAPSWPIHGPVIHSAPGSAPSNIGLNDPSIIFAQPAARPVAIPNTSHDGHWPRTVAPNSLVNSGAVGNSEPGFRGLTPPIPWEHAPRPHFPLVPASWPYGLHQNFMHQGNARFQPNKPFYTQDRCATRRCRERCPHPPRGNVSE
Summary of the method: as §1

CSNK2A1, sequence (P68400 whole entry, looked up): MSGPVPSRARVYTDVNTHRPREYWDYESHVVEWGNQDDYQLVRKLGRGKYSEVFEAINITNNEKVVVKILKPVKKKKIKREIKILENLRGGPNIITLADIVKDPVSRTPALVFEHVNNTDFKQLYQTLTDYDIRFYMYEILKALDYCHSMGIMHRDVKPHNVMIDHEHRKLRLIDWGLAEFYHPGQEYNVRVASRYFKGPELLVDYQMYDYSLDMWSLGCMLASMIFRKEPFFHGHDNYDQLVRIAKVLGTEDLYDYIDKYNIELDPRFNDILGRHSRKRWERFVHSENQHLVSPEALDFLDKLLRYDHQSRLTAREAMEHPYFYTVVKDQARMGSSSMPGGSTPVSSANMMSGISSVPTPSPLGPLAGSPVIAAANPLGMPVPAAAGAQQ

## AAUAAA
[1]
  EC50: 124 nM

## CUGUCCU
[2]
  EC50: 136 nM
[3]
  EC50: 978 nM
[4]
  EC50: 3020 nM

## UAUUUAU
[5]
  EC50: 27.8 nM
[6]
  EC50: 18000 nM
[7]
  EC50: 9580 nM
[8]
  EC50: 300 nM
[9]
  EC50: 108 nM
